Measured values from paper PMC2881571 (Molecular microbiology, 2009).
Positions count from the first letter of the chain named. Numbers in names are those of the source. Like-named read-outs stand apart in the source and are kept apart here.

How the values were obtained:
[1] = target: T1, 6His-OspR (Pseudomonas aeruginosa MPAO1, UniProt Q9I018 1-163); assay: EMSA
T1 sequence: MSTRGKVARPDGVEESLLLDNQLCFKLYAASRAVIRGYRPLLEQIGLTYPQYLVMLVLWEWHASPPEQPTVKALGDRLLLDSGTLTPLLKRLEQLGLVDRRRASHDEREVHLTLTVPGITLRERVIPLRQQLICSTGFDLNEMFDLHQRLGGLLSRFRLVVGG

[2] = target: the molecule itself; assay: cross-linking
[3] = target: T1, 6His-OspR; assay: EMSA; remark: listed apart in the source
[4] = target: T2, 6His-OspR C24S (Pseudomonas aeruginosa MPAO1, UniProt Q9I018 1-163, C24S); assay: EMSA
T2 sequence: T1 sequence with C24S

B1: PA1897-p (70 bp) (dsDNA)
DNA 1: GGCAGGTTGTCCCTGCCGGGCTGTGACAATTTAATTCGACCAGGCATTTCATTGTCCGTGCCGATTTTCA
DNA 2: TGAAAATCGGCACGGACAATGAAATGCCTGGTCGAATTAAATTGTCACAGCCCGGCAGGGACAACCTGCC
B1: binds [1].

B2: 6His-OspR C24S (natural protein, Pseudomonas aeruginosa MPAO1, UniProt Q9I018 1-163, looked up)
chain: T1 sequence with C24S
B2: binds [2].

B3: hmgA-p (PA2009-PA2010 intergenic, 70 bp) (dsDNA)
DNA 1: TGGCACGCTGGCTGCGTTATTTTTATCGTAATTCAATTACGCATAACGTAATTTGAGTGGAAGGCAGCGT
DNA 2: ACGCTGCCTTCCACTCAAATTACGTTATGCGTAATTGAATTACGATAAAAATAACGCAGCCAGCGTGCCA
B3: binds [1].

B4: B2d (B2 lacking AATTnAATT, 34 bp) (dsDNA)
DNA 1: TTCAATCAAGTTGTGTGCGCGAGCTACTTTATTT
DNA 2: AAATAAAGTAGCTCGCGCACACAACTTGATTGAA
B4: no binding [1].

B5: B2 (PA2826 promoter, 43 bp) (dsDNA)
DNA 1: TTCAATCAAGTTGTGTGCAATTGAATTGCGAGCTACTTTATTT
DNA 2: AAATAAAGTAGCTCGCAATTCAATTGCACACAACTTGATTGAA
B5: binds [3]; binds [4].
